In patent publication US20230263864A1, “THERAPEUTIC MICROBES” (Danmarks Tekniske Universitet, priority 2020, published 2023):

B1: ubericin A: bacteriocin (SEQ ID NO. 29) co-expressed by L-DOPA producing E. coli Nissle (protein)
chain: MKKTAIAIAVALAGFATVAQAKTVNYGNGLYCNQKKCWVNWSETATTIVNNSIMNGLTGGNAGWHSGGRA
modifications: Ubericin A
B2: Hiracin JM79: bacteriocin (SEQ ID NO. 27) co-expressed by L-DOPA producing E. coli Nissle (protein)
chain: MKKTAIAIAVALAGFATVAQAATYYGNGLYCNKEKCWVDWNQAKGEIGKIIVNGWVNHGPWAPRR
modifications: Hiracin JM79
B3: Enterocin A: bacteriocin (SEQ ID NO. 31) co-expressed by L-DOPA producing E. coli Nissle, pMUT-DOPA_5-EntA (protein)
chain: MKKTAIAIAVALAGFATVAQATTHSGKYYGNGVYCTKNKCTVDWAKATTCIAGMSIGGFLGGAIPGKC
modifications: Enterocin A

Tests used:
[1] = Oral gavage of engineered E. coli Nissle in mice, metabolites and body weight; assay type: in vivo, mice (NMRI); conditions: carbidopa 10 mg/kg IP every 24 h
Method: Female mice (NMRI, supplied by Taconic Biosciences, 6 weeks of age) were group-housed on a 12-h light:dark cycle at constant temperature with ad libitum access to food and water in a Specific Pathogen Free (SPF) facility. Upon delivery, mice were given 5 days to adjust to new location. Cohort size was 8 animals, and 4 different cohorts were tested, see below. All animals received Streptomycin (5 g/L) in the drinking water to ensure colonization, 3 days before being gavaged and throughout the experiment. A single oral gavage of 10^8 cells was administered of either L-DOPA-producing (called ‘EcN_DOPA’) or a control E. coli Nissle (‘EcN_CTRL’) strain without expression of the tyrosine hydroxylase gene. Samples were taken for the following 7 days, after which animals were euthanized and final blood samples and gut content samples were collected. […] Fresh fecal samples were collected daily for 7 days to quantify colonization and metabolite levels. […]
In vivo sample analysis: Plasma, tissue samples, gut content and fecal samples were analyzed for DOPA-derived and related serotonin metabolites using LC-MS. […] Gut and brain tissue was also frozen for real-time quantitative PCR (RT-qPCR) and metabolite analysis. Quantification of metabolites from in vivo samples was performed as described above (‘LC-MS analysis’).

E. faecalis = experiment: Bacteriocin assay (halos on BHI agar); assay type: cell-based; conditions: overnight 37 C, FIG. 6C
Method: Three colonies of each E. coli Nissle strain were inoculated in 5 ml of BHI broth and grown overnight at 37° C. in a shaking incubator. The following day, 1 ml of the culture was washed with PBS buffer once and 10 μl were used to spot the strains on top of a BHI agar plate. After drying, top BHI agar was mixed with 500 μl of previously grown E. faecalis, and was placed on top of the BHI agar containing the dried spots of the E. coli strains. Plates were dried for 10 minutes and then incubated at 37° C. overnight.

Molecule	Plasma serotonin levels ([1]; EcN_DOPA p=0.08)	Serotonin (5-HT) concentrations in urine ([1]; single oral gavage 10^8 cells, EcN_DOPA vs control strain p=0.06)	inhibition of E. faecalis around EcN spots (E. faecalis)
C[C@@](Cc1ccc(O)c(O)c1)(NN)C(=O)O [carbidopa]	reduced	decreased below detection level	
B1			halos of inhibition
B2			halos of inhibition
B3			halos of inhibition
